# Test results taken from US20200062856A1 (XDCEXPLORER SHANGHAI, published 2020).
# Substitutions are numbered along the chain they refer to.
# T1: cynomolgus TPBG protein, full-length, on the cell surface (cynomolgus, UniProt Q4R8Y9 35-420)
# T1 construct: whole, on cells; also called cTPBG; CHOk1-cTPBG
# T1 sequence (looked up): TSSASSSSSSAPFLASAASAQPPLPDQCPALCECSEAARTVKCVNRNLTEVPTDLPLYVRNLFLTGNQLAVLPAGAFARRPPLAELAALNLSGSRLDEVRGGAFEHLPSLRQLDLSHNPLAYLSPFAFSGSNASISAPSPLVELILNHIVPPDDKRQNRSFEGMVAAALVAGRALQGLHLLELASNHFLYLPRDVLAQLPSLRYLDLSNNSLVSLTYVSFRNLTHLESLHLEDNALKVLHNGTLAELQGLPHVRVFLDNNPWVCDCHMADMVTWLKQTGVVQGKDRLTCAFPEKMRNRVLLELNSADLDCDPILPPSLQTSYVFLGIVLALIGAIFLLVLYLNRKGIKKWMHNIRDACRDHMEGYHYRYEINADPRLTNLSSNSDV
# T2: mouse TPBG protein, full-length, on the cell surface (mouse, UniProt Q9Z0L0 32-426)
# T2 construct: whole, on cells; also called mTPBG; CHOk1-mTPBG
# T2 sequence (looked up): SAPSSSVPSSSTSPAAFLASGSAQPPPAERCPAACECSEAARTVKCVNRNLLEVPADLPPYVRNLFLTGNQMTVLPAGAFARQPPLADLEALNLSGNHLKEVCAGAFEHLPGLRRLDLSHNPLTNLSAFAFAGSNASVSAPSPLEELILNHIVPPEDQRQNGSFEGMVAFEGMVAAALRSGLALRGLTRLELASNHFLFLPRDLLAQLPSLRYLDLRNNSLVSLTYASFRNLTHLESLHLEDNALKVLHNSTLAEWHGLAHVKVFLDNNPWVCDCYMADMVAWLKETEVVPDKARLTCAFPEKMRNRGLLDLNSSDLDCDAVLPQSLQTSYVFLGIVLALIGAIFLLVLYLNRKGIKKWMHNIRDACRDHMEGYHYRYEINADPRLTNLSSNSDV
# T3: human TPBG antigen immobilized on a CM5 chip (human, UniProt Q13641 32-355, limits assumed)
# T3 sequence (looked up): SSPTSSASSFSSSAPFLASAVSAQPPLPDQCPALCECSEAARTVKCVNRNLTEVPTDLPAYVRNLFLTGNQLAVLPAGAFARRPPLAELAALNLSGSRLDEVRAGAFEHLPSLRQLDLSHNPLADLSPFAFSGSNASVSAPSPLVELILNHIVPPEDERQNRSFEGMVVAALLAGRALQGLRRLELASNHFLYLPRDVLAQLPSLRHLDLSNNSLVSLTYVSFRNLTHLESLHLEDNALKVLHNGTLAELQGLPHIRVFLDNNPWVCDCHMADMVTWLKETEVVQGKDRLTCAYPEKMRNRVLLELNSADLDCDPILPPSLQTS
# T4: human TPBG protein, full-length, on the cell surface (human, UniProt Q13641 32-420)
# T4 construct: whole, on cells; Transfected HEK293 (293F-hTPBG clones) and CHO-k1 (CHOk1-hTPBG 3A2F1) cells; also used here for endogenous TPBG on the TPBG-positive tumour lines NCI-H1568, NCI-H1975 and MDA-MB-468 in the killing assays; also called hTPBG; 5T4
# T4 sequence (looked up): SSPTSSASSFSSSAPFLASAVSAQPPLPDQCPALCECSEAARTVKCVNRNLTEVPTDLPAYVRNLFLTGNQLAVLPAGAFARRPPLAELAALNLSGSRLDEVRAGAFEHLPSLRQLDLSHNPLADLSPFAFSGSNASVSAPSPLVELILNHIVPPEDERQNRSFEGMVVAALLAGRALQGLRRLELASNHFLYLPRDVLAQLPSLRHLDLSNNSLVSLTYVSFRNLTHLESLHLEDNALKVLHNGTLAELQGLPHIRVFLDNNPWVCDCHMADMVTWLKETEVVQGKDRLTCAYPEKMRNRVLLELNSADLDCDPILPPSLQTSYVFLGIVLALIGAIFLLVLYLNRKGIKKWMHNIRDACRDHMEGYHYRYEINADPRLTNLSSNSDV
# T5: human TPBG-hFc protein (human, UniProt Q13641 32-355)
# T5 construct: range 32-355; Expressed in HEK293 cells, purified on protein A; also called immunogen A; hFc tagged TPBG protein; not shown: human IgG Fc fragment of the pCpC vector
# T5 sequence (looked up): T3 sequence (looked up)
# B1: Humanized antibody 12B12-12 (antibody, V domains shown)
# VH: EVQLVESGGGLVQPGGSLRLSCAASGFTFSNFGMHWVRQAPGKGLEWVSYISSGSTSFYYADTVKGRFTISRDNAKNSLYLQMNSLRDEDTAVYYCARTNSLLRGFFDAWGQGTTVTVSS
# VL: DIVLTQTPLSLSVTPGQPASISCRASQSVSSSSYTYLHWYLQKPGQPPQLLIKSASNLESGVPDRFSGSGSGTDFTLKISRVEAEDVGVYYCQHSWEIPLTFGQGTKLEIK
# notes: also called h12B12-12
# B2: Humanized antibody 12B12-15 (antibody, V domains shown)
# VH: B1 VH with L11V, G16R, S49A, A75S, S78T, D88A
# VL: B1 VL
# notes: also called h12B12-15
# B3: Chimeric antibody 12B12 (antibody, V domains shown)
# VH: DVQLVESGGGLVQPGGSRKLSCAASGFTFSNFGMHWVRQAPEKGLEWVAYISSGSTSFYYADTVKGRFTISRDNPKNTLFLQMTSLRSEDTAMYYCSRTNSLLRGFFDAWGAGTTVTVSS
# VL: DIVLTQSPASLAVSLGQRATISCRASQSVSSSSYTYLHWYQQKPGQPPKLLIKSASNLESGVPARFSGTGSGTDFTLNIHPVEEEDTATYYCQHSWEIPLTFGAGTKLELK
# notes: Mouse variable domains on human IgG1 heavy and human kappa light constant regions; also called c12B12; TPBG chimeric antibody 12B12
# Tests used:
# [1] = biological target: human TPBG protein, full-length, on the cell surface (human) (UniProt Q13641); test: FACS, HEK293 clone 293F-hTPBG 4B9
# [2] = biological target: human TPBG protein, full-length, on the cell surface (human) (UniProt Q13641); test: FACS, HEK293 clone 293F-hTPBG 5A11
# [3] = biological target: human TPBG protein, full-length, on the cell surface (human) (UniProt Q13641); test: FACS, HEK293 clone 293F-hTPBG 4G1
# [4] = biological target: human TPBG protein, full-length, on the cell surface (human) (UniProt Q13641); test: FACS, HEK293 clone 293F-hTPBG 4E1
# [5] = biological target: human TPBG protein, full-length, on the cell surface (human) (UniProt Q13641); test: FACS, HEK293 clone 293F-hTPBG 4A9
# [6] = biological target: human TPBG protein, full-length, on the cell surface (human) (UniProt Q13641); test: FACS, HEK293 clone 293F-hTPBG 5A9
# [7] = biological target: human TPBG protein, full-length, on the cell surface (human) (UniProt Q13641); test: FACS, HEK293 clone 293F-hTPBG 4A8
# [8] = biological target: human TPBG protein, full-length, on the cell surface (human) (UniProt Q13641); test: FACS, HEK293 clone 293F-hTPBG 4E1 (NO 8)
# [9] = biological target: human TPBG protein, full-length, on the cell surface (human) (UniProt Q13641); test: FACS, HEK293 clone 293F-hTPBG 5G8
# [10] = biological target: human TPBG protein, full-length, on the cell surface (human) (UniProt Q13641); test: FACS, HEK293 clone 293F-hTPBG 4H12
# [11] = biological target: human TPBG protein, full-length, on the cell surface (human) (UniProt Q13641); test: FACS, HEK293 clone 293F-hTPBG 4C3
# [12] = biological target: human TPBG protein, full-length, on the cell surface (human) (UniProt Q13641); test: FACS, HEK293 clone 293F-hTPBG 5G11
# [13] = biological target: human TPBG protein, full-length, on the cell surface (human) (UniProt Q13641); test: FACS, HEK293 clone 293F-hTPBG 4G6
# [14] = biological target: human TPBG protein, full-length, on the cell surface (human) (UniProt Q13641); test: FACS, HEK293 clone 293F-hTPBG 5C12
# [15] = biological target: cynomolgus TPBG protein, full-length, on the cell surface (cynomolgus) (UniProt Q4R8Y9); test: FACS, CHOk1-cTPBG 3F13G4 cells
# [16] = biological target: human TPBG protein, full-length, on the cell surface (human) (UniProt Q13641); test: FACS, HEK293 clone 293F-hTPBG 5E5
# [17] = biological target: human TPBG protein, full-length, on the cell surface (human) (UniProt Q13641); test: FACS, HEK293 clone 293F-hTPBG 4F9
# [18] = biological target: human TPBG protein, full-length, on the cell surface (human) (UniProt Q13641); test: FACS, HEK293 clone 293F-hTPBG 5H6
# [19] = biological target: human TPBG protein, full-length, on the cell surface (human) (UniProt Q13641); test: FACS, HEK293 clone 293F-hTPBG 5E6
# [20] = biological target: human TPBG protein, full-length, on the cell surface (human) (UniProt Q13641); test: FACS, HEK293 clone 293F-hTPBG 4C5
# [21] = biological target: human TPBG protein, full-length, on the cell surface (human) (UniProt Q13641); test: FACS, CHOk1-hTPBG 3A2F1 cells
# [22] = biological target: mouse TPBG protein, full-length, on the cell surface (mouse) (UniProt Q9Z0L0); test: FACS, CHOk1-mTPBG 3A3 cells
# [23] = biological target: human TPBG protein, full-length, on the cell surface (human) (UniProt Q13641); test: FACS, HEK293 clone 293F-hTPBG 5D4
# [24] = biological target: T1, cynomolgus TPBG protein, full-length, …; test: FACS on CHOK1-cTPBG cells
# [25] = biological target: T2, mouse TPBG protein, full-length, on the …; test: FACS on CHO-k1 cells with surface-expressed mouse TPBG, fluorescent secondary antibody, mean fluorescence intensity
# [26] = biological target: T3, human TPBG antigen immobilized on a CM5 …; test: SPR (Biacore), human TPBG antigen immobilized on CM5 chip
# Description: To assess the binding specificity and affinity of the humanized anti-TPBG antibody, Biacore analysis was performed using human TPBG antigen immobilized on a CM5 chip. Biacore technique utilizes the change in the refractive index of surface layer after antibody binding to the TPBG antigen immobilized on the surface layer. The binding was determined by surface plasmon resonance (SPR) through detecting the laser refracted from the surface. Non-specific and specific interactions were distinguished by analysis of signal kinetics binding rate and dissociation rate. Chimeric antibodies 12B12 and 28D4 were used as controls.
# [27] = biological target: T4, human TPBG protein, full-length, on the …; test: FACS on CHOK1-hTPBG cells
# [28] = biological target: T5, human TPBG-hFc protein; test: ELISA, coated human TPBG-hFc
# Description: The purified human TPBG-hFc obtained from step (1) diluting with PBS to a final concentration of 1.0 μg/mL was aliquoted into a 96-well ELISA plate at 100 μL per well, and sealed with a parafilm and incubated at 4° C. overnight. The plate was washed twice with plate washing buffer (PBS containing 0.01% (v/v) Tween 20), and blocked with blocking buffer (PBS containing 0.01% (v/v) Tween 20 and 1% (w/w) BSA) at room temperature for 2 h. The blocking buffer was discarded, and […] per well of the purified antibody TPBG was added. After incubating at 37° C. for 2 h, the plate was washed for three times with plate washing buffer (PBS containing 0.01% (v/v) Tween 20). HRP (horseradish peroxidase)-labeled secondary antibody (purchased from Sigma) was added and incubated at 37° C. for 2 h, and the plate was washed for three times using plate washing buffer (PBS containing 0.01% (v/v) Tween 20). 100 μL of TMB substrate was aliquoted into each well, incubated at room temperature for 30 min, and 100 μL of stop buffer (1.0 N HCl) per well was subsequently added. A_{450 nm} values were read using the ELISA plate reader (SpectraMax 384plus purchased from Molecular Device), and the results were shown in Table 5. […] In Table 5 the IgG control herein is a mice IgG control, the data in the Table are OD_{450 nm} values, and Blank represents the OD_{450 nm} value of PBS buffer in the plate.
# The purified humanized TPBG antibody obtained from Embodiment 1 was reacted with human TPBG-hFc, for the method, see (5) Identification of lead antibody in Embodiment 1. The EC50 in Table 11 and Table 12 are calculated according to the OD450 nm value of the h12B12 variants and the h28D4 variants, respectively. […] FIGS. 7A and 7B are the binding reactions of purified humanized h12B12 variants to human TBPG-hFc protein, and FIGS. 8A and 8B are the binding reactions of the purified humanized h28D4 variants to human TBPG-hFc protein.
molecule,measurement,setting,value
"commercially available TPBG antibody (purchased from Sigma, Lot NO: SAB1404485)",Cellular MFI,[1],126 MFI
same,Cellular MFI,[2],166 MFI
same,Cellular MFI,[3],131 MFI
same,Cellular MFI,[4],145 MFI
same,Cellular MFI,[5],204 MFI
same,Cellular MFI,[6],53.2 MFI
same,Cellular MFI,[7],33.4 MFI
same,Cellular MFI,[8],91.8 MFI
same,Cellular MFI,[9],168 MFI
same,Cellular MFI,[10],9.5 MFI
same,Cellular MFI,[11],27.2 MFI
same,Cellular MFI,[12],11.3 MFI
same,Cellular MFI,[13],31.8 MFI
same,Cellular MFI,[14],75.4 MFI
same,Cellular MFI,[15],198 MFI
same,Cellular MFI,[16],280 MFI
same,Cellular MFI,[17],47.7 MFI
same,Cellular MFI,[18],36.4 MFI
same,Cellular MFI,[19],13.2 MFI
same,Cellular MFI,[20],172 MFI
same,Cellular MFI,[21],798 MFI
same,Cellular MFI,[22],135 MFI
same,Cellular MFI,[23],70.6 MFI
B1,EC50,[24],10.3 nM
same,binding result,[25],no binding (tested: 100 nM)
same,Kd,[26],0.0186 nM
same,koff,[26],2.29e-05 s⁻¹
same,kon,[26],1.23e+06 M⁻¹ s⁻¹
same,EC50,[27],0.33 nM
same,EC50,[28],0.206 nM
B2,EC50,[24],0.87 nM
same,binding result,[25],no binding (tested: 100 nM)
same,Kd,[26],< 0.00566 nM
same,koff,[26],< 1e-05 s⁻¹
same,kon,[26],1.77e+06 M⁻¹ s⁻¹
same,EC50,[27],0.37 nM
same,EC50,[28],0.193 nM
B3,EC50,[24],0.67 nM
same,binding result,[25],no binding (tested: 100 nM)
same,Kd,[26],0.0102 nM
same,koff,[26],1.64e-05 s⁻¹
same,kon,[26],1.61e+06 M⁻¹ s⁻¹
same,EC50,[27],0.33 nM
same,EC50,[28],0.137 nM
